This note sets out measurements from publication PMC11952830 (2025).

For orientation: Kd means the free concentration of one partner at which half of the binding sites on the other are occupied at equilibrium, for simple one-to-one binding. Low values mean tighter binding, high ones weaker binding.

This test has as its target actin (rabbit muscle) (rabbit, UniProt P68135 1-377). The experiment in a line: FP; actin filaments.

No end group written: not given here. TMR = tetramethylrhodamine

Turning to {TMR}-MPAKTPIYLKAANNKKGKKFK (domain or fragment) [Cdc42EP3 (1-21), TMR labeled at the N-terminus], binding was characterised by a dissociation constant (Kd) of 18.9 µM.
